{"source": "paper PMC2800235", "target": "MBP-transposase fusion protein (reconstituted ancestral Hsmar1 transposase) (human (reconstructed ancestral sequence of the human Hsmar1 transposon))", "assay": "SEC", "data": [{"substance": "MBP-transposase fusion protein (reconstituted ancestral Hsmar1 transposase) (enzyme)", "values": [{"measurement": "stoichiometry N", "value": 2}]}]}
